Laboratory results from publication PMC8062489, “Tgf-β1 transcriptionally promotes 90K expression: possible implications for cancer progression”.

B1: EWT (E, consensus E-box) (dsDNA)
DNA 1: GGAAGCAGACCACGTGGTCTGCTT
DNA 2: AAGCAGACCACGTGGTCTGCTTCC
B2: Oligo I (dsDNA)
DNA 1: GCAGCCTCCGTCATGTGTTTTCTGGA
DNA 2: TCCAGAAAACACATGACGGAGGCTGC

Target: rUSF1 (recombinant His-USF1) (UniProt P22415 1-310)
Assay: EMSA; 20 mM HEPES (pH not stated), 0.1% NP40, 5 mM MgCl2, 50 mM KCl, 2% glycerol, 2 mM DTT, 50 ng/ml poly(dI-dC), room temperature, 20 ul, 5 ug nuclear extract; 5% native PAGE in 1x TBE
Settings: protein: recombinant; tags: N-terminal His-tag; chain copies: 2; label: 5'-32P as probe; blunt

Sequence of rUSF1 (recombinant His-USF1) (P22415 whole entry): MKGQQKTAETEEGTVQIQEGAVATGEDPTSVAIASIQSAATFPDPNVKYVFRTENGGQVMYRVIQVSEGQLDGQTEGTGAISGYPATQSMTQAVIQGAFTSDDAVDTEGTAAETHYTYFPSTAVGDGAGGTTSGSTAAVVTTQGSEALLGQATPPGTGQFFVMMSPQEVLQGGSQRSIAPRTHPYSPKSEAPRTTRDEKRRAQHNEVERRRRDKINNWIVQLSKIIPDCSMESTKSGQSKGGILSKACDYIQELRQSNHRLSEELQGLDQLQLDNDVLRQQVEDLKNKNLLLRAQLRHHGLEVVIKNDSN

Binder | binding result
B1 | binds
B2 | binds
